First the molecules themselves.
B1: LINE1-mini (parent)
chain: GGCAGAGCUCAACACAGCGUGGCAAAGUGGCUGUGGCUAGACUGCC

The variants in this data set derive from B1. Kind of data set: self-cleavage, relative activity (ratio to wild type); higher = more cleavage; in vitro, sequencing; the parent is a self-cleaving ribozyme.
Turning to GGCAGAGAUCAACACAGCGUGGCAAAGAGGCUGUGGCUAGACUGCC, the self-cleavage is 0.17.
For the variant GGCAGAGAUCAACACAGCGUGGCAAAGCGGCUGUGGCUAGACUGCC, the self-cleavage came to 0.25.
GGCAGAGAUCAACACAGCGUGGCAAAGGGGCUGUGGCUAGACUGCC: the self-cleavage is 0.08.
Take GGCAGAGAUCAACACAGCGUUGCAAAGUGGCUGUGGCUAGACUGCC: the self-cleavage stood at 0.23.
Take GGCAGAGAUCAACACAGCGUCGCAAAGUGGCUGUGGCUAGACUGCC: the self-cleavage stood at 0.21.
Take GGCAGAGAUCAACACAGCGUAGCAAAGUGGCUGUGGCUAGACUGCC: the self-cleavage turned out to be 0.63.
GGCAGAGGUCAACUCAGCGUGGCAAAGUGGCUGUGGCUAGACUGCC: the self-cleavage worked out at 0.08.
To GGCAGAGGUCAACGCAGCGUGGCAAAGUGGCUGUGGCUAGACUGCC belongs 0.08; to GGCAGAGGUCAACCCAGCGUGGCAAAGUGGCUGUGGCUAGACUGCC, 0.11; to GGCAGAGAUCAACACAGCGUGGCAAAGUGGCUCUGGCUAGACUGCC, 0.28.
Consider GGCAGAGAUCAACACAGCGUGGCAAAGUGGCUUUGGCUAGACUGCC, for which the self-cleavage worked out at 0.18.
In the case of GGCAGAGAUCAACACAGCGUGGCAAAGUGGCUAUGGCUAGACUGCC it was 0.16.
Take GGCAGAGAUCAACACAGCGUGGCAAAGUUGCUGUGGCUAGACUGCC: the self-cleavage amounted to 0.43.
Consider GGCAGAGAUCAACACAGCGUGGCAAAGUAGCUGUGGCUAGACUGCC, for which the self-cleavage came to 0.26.
GGCAGAGAUCAACACAGCGUGGCAAAGUCGCUGUGGCUAGACUGCC: the self-cleavage is 0.14.
In the case of GGCAGAGAUCAACACAGCGUGGCAAAGUGGCUGUGUCUAGACUGCC it was 0.22; in that of GGCAGAGAUCAACACAGCGUGGCAAAGUGGCUGUGACUAGACUGCC, 0.65; in that of GGCAGAGAUCAACACAGCGUGGCAAAGUGGCUGUGCCUAGACUGCC, 0.29.
For GGCAGAGAUCAACACAGCGCGGCAAAGUGGCUGUGGCUAGACUGCC, the self-cleavage was found to be 0.15.
Consider GGCAGAGAUCAACACAGCGGGGCAAAGUGGCUGUGGCUAGACUGCC, for which the self-cleavage was found to be 0.15.
In the case of GGCAGAGAUCAACACAGCGAGGCAAAGUGGCUGUGGCUAGACUGCC, the self-cleavage is 0.14.
GGCAGAGAUCAACACAGAGUGGCAAAGUGGCUGUGGCUAGACUGCC: the self-cleavage turned out to be 0.37.
With GGCAGAGAUCAACACAGUGUGGCAAAGUGGCUGUGGCUAGACUGCC, the self-cleavage came out at 0.27.
To GGCAGAGAUCAACACAGGGUGGCAAAGUGGCUGUGGCUAGACUGCC belongs 0.15.
As for GGCAGAGAUCAACACAGCGUGACAAAGUGGCUGUGGCUAGACUGCC, the self-cleavage stood at 0.18.
For the variant GGCAGAGAUCAACACAGCGUGUCAAAGUGGCUGUGGCUAGACUGCC, the self-cleavage stood at 0.24.
For the variant GGCAGAGAUCAACACAGCGUGCCAAAGUGGCUGUGGCUAGACUGCC, the self-cleavage was found to be 0.17.
In the case of GGCAGAGAUCAACACAGCGUGGCAAAGUGUCUGUGGCUAGACUGCC it was 0.59; in that of GGCAGAGAUCAACACAGCGUGGCAAAGUGCCUGUGGCUAGACUGCC, 0.26.
Take GGCAGAGAUCAACACAGCGUGGCAAAGUGACUGUGGCUAGACUGCC: the self-cleavage was 0.42.
For GGCAGAGAUCAACACAGCGUGGCAAACUGGCUGUGGCUAGACUGCC, the self-cleavage turned out to be 0.12.
Take GGCAGAGAUCAACACAGCGUGGCAAAUUGGCUGUGGCUAGACUGCC: the self-cleavage came to 0.16.
With GGCAGAGAUCAACACAGCGUGGCAAAAUGGCUGUGGCUAGACUGCC, the self-cleavage came out at 0.17.
As for GGCAGAGAUCAACACAGCGUGGCAACGUGGCUGUGGCUAGACUGCC, the self-cleavage was 0.26.
Turning to GGCAGAGAUCAACACAGCGUGGCAAUGUGGCUGUGGCUAGACUGCC, the self-cleavage stood at 0.3.
For the variant GGCAGAGAUCAACACAGCGUGGCAAGGUGGCUGUGGCUAGACUGCC, the self-cleavage amounted to 0.21.
With GGCAGAGAUAAACACAGCGUGGCAAAGUGGCUGUGGCUAGACUGCC, the self-cleavage came out at 0.04.
Consider GGCAGAGAUUAACACAGCGUGGCAAAGUGGCUGUGGCUAGACUGCC, for which the self-cleavage turned out to be 0.08.
On to GGCAGAGAUGAACACAGCGUGGCAAAGUGGCUGUGGCUAGACUGCC, for which the self-cleavage amounted to 0.02.
In the case of GGCAGAGAUCAACACAGCGUGGCAAAGUGGCUGUGGCUAGACUGCA it was 0.35; in that of GGCAGAGAUCAACACAGCGUGGCAAAGUGGCUGUGGCUAGACUGCU, 0.43; in that of GGCAGAGAUCAACACAGCGUGGCAAAGUGGCUGUGGCUAGACUGCG, 0.33.
For GGCAGAGGUCUACACAGCGUGGCAAAGUGGCUGUGGCUAGACUGCC, the self-cleavage came to 0.03.
To GGCAGAGGUCCACACAGCGUGGCAAAGUGGCUGUGGCUAGACUGCC belongs 0.02; to GGCAGAGGUCGACACAGCGUGGCAAAGUGGCUGUGGCUAGACUGCC, 0.03; to GGCAGAGAUCAACACAGCGUGGCAAAGUGGCUGUGGCUAGCCUGCC, 0.36.
In the case of GGCAGAGAUCAACACAGCGUGGCAAAGUGGCUGUGGCUAGGCUGCC it was 0.29; in that of GGCAGAGAUCAACACAGCGUGGCAAAGUGGCUGUGGCUAGUCUGCC, 0.48; in that of GGCAGAGAUCAACACAGCGUGGCAAAGUGGCUGUGGCUACACUGCC, 0.22.
For GGCAGAGAUCAACACAGCGUGGCAAAGUGGCUGUGGCUAUACUGCC, the self-cleavage came to 0.34.
Consider GGCAGAGAUCAACACAGCGUGGCAAAGUGGCUGUGGCUAAACUGCC, for which the self-cleavage is 0.27.
Consider GGCAGAGAUCAACACAGCGUGGCAAAGUGGCUGUUGCUAGACUGCC, for which the self-cleavage turned out to be 0.44.
With GGCAGAGAUCAACACAGCGUGGCAAAGUGGCUGUAGCUAGACUGCC, the self-cleavage is 0.42.
On to GGCAGAGAUCAACACAGCGUGGCAAAGUGGCUGUCGCUAGACUGCC, for which the self-cleavage came out at 0.16.
To GGCAGAGAUCAACACAGCGUGGCAAAGUGGCUGUGGCUAGAUUGCC belongs 0.24.
Turning to GGCAGAGAUCAACACAGCGUGGCAAAGUGGCUGUGGCUAGAGUGCC, the self-cleavage came to 0.19.
